Reference: article PMC5674899

What was measured:
[1] = molecular target: GFP-tagged WT NuMA-tail II (aa 1868–2091) (human) (UniProt Q14980); assay: ITC
[2] = molecular target: GFP-tagged WT NuMA-tail II (aa 1868–2091) (human) (UniProt Q14980); assay: TIRF microscopy of GFP-tagged protein on immobilised microtubules
[3] = molecular target: NuMA-tail (1970–2091)—GFP (human) (UniProt Q14980); assay: as above

Kd [1] [nM] | fold reduction of the GFP signal of m1 on microtubules [2] [fold] | fold reduction of the microtubule binding of m17 [3] [fold] | Substance
2200 | 50 | 80 | 1:1 stoichiometric mixture of full-length Importin-α and Importin-β (from UniProt P52292 1-529; Q14974 1-876) (complex)
250 |  |  | Importin-α lacking the Importin-β binding (IBB) domain (aa 70–524), mouse (from UniProt P52293 70-524) (domain or fragment)
